According to patent publication US20230295308A1, “ANTAGONISTIC BIPARATOPIC ANTIBODIES THAT SPECIFICALLY BIND FIBROBLAST GROWTH FACTOR RECEPTOR 2 AND METHODS OF USING SAME” (The Broad Institute, Inc., priority 2020, published 2023):
“Also recorded” adds a separate entry of the source.

Legend:
[1] = test system: BaF3 cells overexpressing FGFR2-PHGDH; assay: combination of BGJ398 and anti-FGFR2 bivalent antibody, isobolograms and Loewe scores (FIGS. 14, 15); format: cell-based; conditions: absence of FGF10, treated for 5 days
Text: FIGS. 14B-14D provide isobolograms showing synergy between FGFR inhibitor and the anti-[…] bivalent antibody on the different days and supporting the results shown in FIG. 14A. FIG. 14B corresponds to 3 days after treatment with the BGJ398 inhibitor; FIG. 14C corresponds to 4 days after treatment with the BGJ398 inhibitor; and FIG. 14D corresponds to 5 days after treatment with the BGJ398 inhibitor. FIG. 14E provide Loewe scores showing synergy between the FGFR inhibitor and the anti-FGF2 bivalent antibody on the different days and supporting the results shown in FIG. 14A.
FIG. 15A presents charts showing synergy between the FGFR2 small molecule inhibitor BGJ398 and an anti-FGFR2 bivalent antibody (Antibody D) in the presence of FGF ligand (+FGF) in a cell-based assay using BaF3 cells overexpressing an FGFR2 fusion molecule (FGFR2-PHGDH) after 3, 4 and 5 days of treatment with the inhibitor and the antibody. […] FIGS. 15B-15D provide isobolograms showing synergy between the FGFR inhibitor and the anti-FGF2 bivalent antibody on the different days and supporting the results shown in FIG. 15A. FIG. 15B corresponds to 3 days after treatment with the BGJ398 inhibitor; FIG. 15C corresponds to 4 days after treatment with the BGJ398 inhibitor; and FIG. 15D corresponds to 5 days after treatment with the BGJ398 inhibitor. […]

[2] = target: FGFR2b alpha IIIb antigen (UniProt P21802); assay: SPR (Biacore), antibody immobilized, FGFR2b alpha IIIb in flow
[3] = test system: FGFR2-PHDGH fusion expressing BaF3 cells; assay: ligand stimulated (FGF10) growth of FGFR2-PHGDH fusion expressing BaF3 cells (FIG. 10); format: cell-based; conditions: FGF10 present
Procedure: FIG. 10 is a graph showing that antibodies C, D, E and F have activity against ligand stimulated growth of FGFR2-PHDGH fusion expressing BaF3 cells.
The growth of BaF3 cells expressing an FGFR2-PHDGH fusion was assayed in the presence of FGF ligand, FGF10. Antibodies C, D, E and F inhibited ligand stimulated growth of FGFR2-PHDGH fusion expressing BaF3 cells (FIG. 10). Based on the results reported herein above, antagonistic biparatopic antibodies are made using the FGFR2 antibody combinations shown in FIG. 11A. These combinations result in increased growth inhibition effects in oncogenic or cancer cells (e.g., transformed BaF3 cells) that overexpressed […]. Thus, antibodies that bind to epitopes have increased inhibitory and killing effects against cancer cells. Designs for antagonistic biparatopic antibodies are shown at FIGS. 11B and 11C. Advantageously, including complementary mutations in VH-VL and CH1-CL on one-half of the biparatopic antibody results in preferential heterodimeric pairing between two different chains rather than chains from the other half of the same antibody. Alternatively, a linker method is used to create scFab, scFv, or DuoBodies. In this method two antibody chains are each generated in different cells and mixed in vitro. Such methods are known in the art and described, for example, by K. Ding et al, March 2017, Appl. Microbiol. […]

[4] = target: FGFR2b alpha IIIb (Homo sapiens, UniProt P21802); assay: Surface Plasmon Resonance (SPR) binding; conditions: FGFR2b alpha IIIb antigen
Text: FIGS. 17A-17C provide a schematic and tabular data related to assessments made to compare the avidity of biparatopic antibodies to that of their parental (bivalent monospecific) antibodies.
Surface Plasmon Resonance (SPR) as known in the art was used to determine the binding affinities of biparatopic antibodies. The SPR-based binding method involves immobilization of a ligand (antibody) on the surface of a sensor chip. The binding partner of interest or an analyte (FGFR2 ECD) flow through the flow channel. Different concentrations of an analyte flow over the ligand, and the interactions of ligand-analyte can be characterized. The SPR signal originates from changes in the refractive index of the […] at the surface of the sensor chip. The increase in mass associated with a binding event causes a proportional increase in the refractive index, which is observed as a change in response-resonance signal. In brief, for the experiments using the antibodies described herein, the SPR assay was carried out by immobilizing antibodies (used as […]) at a concentration ranging from 1-1000 nM and flow-through FGFR2b alpha IIIb antigen (used as […]). The antibody kinetic data for the interaction with FGFR2b alpha IIb antigen were fitted to the 2-state and 1-1 binding models using Biocore software. The mean and standard deviation KD values are derived from at least three independent runs.
Using SPR, the kinetics of 6 monospecific and 13 biparatopic antibodies for binding to a single antigen, FGFR2b alpha IIb, was measured so as to compare avidity of the biparatopic antibodies to their parental antibodies. Without wishing to be bound by theory, it was expected that the biparatopic antibodies would bind to the FGFR2 antigen more tightly than their parental antibodies and that the tighter binding biparatopic antibodies among the antibodies that were assessed would be more efficient in blocking FGFR2 dimerization (FIG. 17A), thereby leading to inhibition or blocking of constitutive FGFR2 signaling and/or oncogenic transformation. […]

[5] = target: FGFR2 on SNU-16 gastric cancer cell line with FGFR2 amplification (UniProt P21802); assay: row 'Kd (nM) (FACS)'; FACS on SNU-16 cells
[6] = target: T1, FGFR2IIIb; assay: row 'Kd (nM) (patent)', value quoted from the source patent; method: solution equilibrium titration (SET)/ELISA+ECL-FGFR2IIIb
T1 construct: also called purified FGFR2IIIb
T1 chain: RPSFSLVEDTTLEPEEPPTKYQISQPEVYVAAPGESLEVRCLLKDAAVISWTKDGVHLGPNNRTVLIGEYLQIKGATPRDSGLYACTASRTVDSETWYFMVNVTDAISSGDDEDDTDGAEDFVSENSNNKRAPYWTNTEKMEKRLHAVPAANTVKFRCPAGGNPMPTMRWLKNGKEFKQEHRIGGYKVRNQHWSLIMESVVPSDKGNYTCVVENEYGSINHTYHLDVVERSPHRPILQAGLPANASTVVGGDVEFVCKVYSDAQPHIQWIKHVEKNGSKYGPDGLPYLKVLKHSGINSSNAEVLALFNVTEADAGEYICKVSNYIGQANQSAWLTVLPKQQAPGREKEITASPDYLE

[7] = target: FGFR2 on SNU-16 gastric cancer cell line with FGFR2 amplification (UniProt P21802); assay: FACS on SNU-16 cells, % cells with FITC+ [cont.]
[8] = target: FGFR2 on SNU-16 gastric cancer cell line with FGFR2 amplification (UniProt P21802); assay: FACS on SNU-16 cells, % cells with FITC+ against log antibody concentration; Kd printed in the legend box [cont.]
[9] = target: FGFR2b alpha IIIb antigen (UniProt P21802); assay: SPR (Biacore), antibody on chip, FGFR2b alpha IIIb antigen
[10] = test system: FGFR2-PHDGH fusion expressing BaF3 cells; assay: growth of BaF3 cells expressing FGFR2-PHGDH fusion, absence of FGF ligands (FIG. 9); format: cell-based; conditions: absence of FGF ligands
Procedure: Antibodies A-F were tested to determine whether they could inhibit the ligand-induced growth of BaF3 cells expressing FGFR2IIIb. Antibodies C, D, and E, which bind FGFR2 Ig-2 and Ig-3, were effective in blocking ligand-induced growth of BaF3 cells expressing wild-type FGFR2IIIb (FIG. 8). The effects of antibodies A-F were then tested on BaF3 cells expressing FGFR2-PHDGH fusions. […] Antibody F inhibited the FGFR2-PHDGH activating fusion in BaF3 cells (FIG. 9).

[11] = target: FGFR2 on SNU-16 gastric cancer cell line with FGFR2 amplification (UniProt P21802); assay: FACS on SNU-16 cells, % No. of cells with FITC+ [cont.]

Binding Stoichiometry [2]: 2.1
Kd [4]: 7.5 nM
Kd [5]: 8.81 nM
Kd [6]: 5.6 nM
EC50 (read off the curve) [7]: 1 µg/mL
Kd [8]: 8.81 nM
Kd [9]: 7.5 nM
EC50 (read off the curve) [11]: 1 µg/mL
B1: 12433 (antibody, V domains shown)
VH: QVQLVQSGAEVKKPGESLKISCKGSGYSFTNYYIHWVRQMPGKGLEWMGAIYPDNSDTTYSPSFQGQVTISADKSISTAYLQWSSLKASDTAMYYCARGADIWGQGTLVTVSS
VL: DIQMTQSPSSLSASVGDRVTITCRASQDIDPYLSNWYQQKPGKAPKLLIYDASNLQSGVPSRFSGSGSGTDFTLTISSLQPEDFATYYCQQTTSHPYTFGQGTKVEIK
notes: the duobody scheme implies IgG1 with K409R or F405L; also called Antibody F; N12433
synergy with BGJ398 in inhibiting FGFR2-PHGDH driven BaF3 cell growth [1]: synergizes
inhibition of ligand stimulated growth of FGFR2-PHGDH fusion expressing BaF3 cells [3]: have activity; also recorded: inhibited
inhibitory activity against the FGFR2-PHGDH activating fusion in BaF3 cells [10]: inhibitory activity; also recorded: inhibited
